Laboratory results as given in patent publication US7265202 (University of California, dated 2007).
Changes are numbered by the printed parent chain.

Tests used:
[1] = molecular target: T1, STAT1 in IL6-treated murine M1 cells (murine, UniProt P42225 2-749, the filing says IL6 stimulation can induce tyrosine phosphorylation of STAT1); assay: co-immunoprecipitation with anti-PIAS3c from M1 cells, blot reprobed with antibody to STAT1
T1 sequence (looked up): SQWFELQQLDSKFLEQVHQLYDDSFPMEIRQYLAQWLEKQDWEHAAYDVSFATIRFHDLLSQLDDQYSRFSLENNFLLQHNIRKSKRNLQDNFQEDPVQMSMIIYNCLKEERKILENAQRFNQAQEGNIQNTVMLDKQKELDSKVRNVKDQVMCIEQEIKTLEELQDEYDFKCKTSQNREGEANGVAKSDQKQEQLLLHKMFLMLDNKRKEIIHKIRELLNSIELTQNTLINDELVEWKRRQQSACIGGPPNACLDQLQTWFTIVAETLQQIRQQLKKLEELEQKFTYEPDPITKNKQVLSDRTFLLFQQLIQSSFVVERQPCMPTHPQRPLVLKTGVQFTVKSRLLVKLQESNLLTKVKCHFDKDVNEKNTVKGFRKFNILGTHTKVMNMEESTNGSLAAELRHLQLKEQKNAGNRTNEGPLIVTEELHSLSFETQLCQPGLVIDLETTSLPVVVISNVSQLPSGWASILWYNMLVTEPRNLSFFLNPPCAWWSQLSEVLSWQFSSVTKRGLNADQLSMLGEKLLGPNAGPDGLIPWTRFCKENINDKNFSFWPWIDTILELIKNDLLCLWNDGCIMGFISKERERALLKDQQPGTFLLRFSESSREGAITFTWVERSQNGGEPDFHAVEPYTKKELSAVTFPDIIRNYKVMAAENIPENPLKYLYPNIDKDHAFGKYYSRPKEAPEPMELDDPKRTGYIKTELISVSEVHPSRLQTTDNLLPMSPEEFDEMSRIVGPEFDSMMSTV
Protocol: To identify which STAT protein interacts with PIAS3, protein extracts were prepared from murine myeloblast M1 cells, which were untreated or treated with IL6. Proteins immunoprecipitated with anti-PIAS3c were analyzed by protein immunoblot with anti-STAT3. STAT3 was present in a PIAS3 immunoprecipitate from IL6 treated M1 cells but not in an immunoprecipitate from untreated M1 cells (FIG. 2A). […] IL6 stimulation can induce tyrosine phosphorylation of STAT1 as well as STAT3 (Sadowski et al. (1993)). The protein blot was therefore washed and reprobed with antibody to STAT1. STAT1 was not present in PIAS3 immunoprecipitates (FIG. 2A). Furthermore, PIAS3 was not found to be associated with STAT1 in a number of cell lines treated with interferon-γ.
Protein extracts from M1 cells, untreated (−) or treated with IL6 for 10 min (+), were subjected to immunoprecipitation (IP) with anti-PIAS3c. The blot was probed with anti-STAT. The same blot was then reprobed with anti-PIAS3c. The filter was washed and reprobed with anti-STAT1.

[2] = molecular target: T2, STAT1 in interferon-treated human cells (human, UniProt P42224 2-750, limits assumed, phosphotyrosine at Tyr-701 (IFN-induced)); assay: co-immunoprecipitation with anti-PIAS3c from HepG2 cells untreated or treated with IL6 or IFN-γ, anti-STAT1 blot
T2 construct: also called p-STAT1; wild type STAT1
T2 sequence (looked up): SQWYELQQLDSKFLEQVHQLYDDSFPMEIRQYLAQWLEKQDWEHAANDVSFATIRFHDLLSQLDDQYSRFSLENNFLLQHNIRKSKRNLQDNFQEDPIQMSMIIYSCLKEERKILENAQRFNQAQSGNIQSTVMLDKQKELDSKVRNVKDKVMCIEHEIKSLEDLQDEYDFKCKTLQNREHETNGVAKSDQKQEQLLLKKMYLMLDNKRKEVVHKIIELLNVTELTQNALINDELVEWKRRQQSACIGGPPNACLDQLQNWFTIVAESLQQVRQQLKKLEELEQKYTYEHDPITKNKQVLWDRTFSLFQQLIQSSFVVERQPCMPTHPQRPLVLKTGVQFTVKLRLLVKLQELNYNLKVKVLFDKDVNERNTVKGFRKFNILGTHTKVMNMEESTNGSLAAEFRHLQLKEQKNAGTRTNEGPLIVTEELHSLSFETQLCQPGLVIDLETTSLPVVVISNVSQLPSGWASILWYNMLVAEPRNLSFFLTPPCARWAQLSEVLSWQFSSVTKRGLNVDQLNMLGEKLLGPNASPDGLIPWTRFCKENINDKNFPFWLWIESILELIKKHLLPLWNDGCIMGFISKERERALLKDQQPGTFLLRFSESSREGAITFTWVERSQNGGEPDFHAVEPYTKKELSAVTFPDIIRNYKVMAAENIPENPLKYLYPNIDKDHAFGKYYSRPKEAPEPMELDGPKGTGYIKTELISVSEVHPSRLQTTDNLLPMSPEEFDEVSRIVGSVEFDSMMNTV

[3] = molecular target: STAT2 in IFN-treated human Daudi B cells (human, UniProt P52630 1-851); assay: co-immunoprecipitation with anti-PIAS1n from IFN-treated Daudi B cells, immunoblot with anti-STAT1 and anti-STAT2
Protocol: Daudi cells were treated with […] for the times indicated. Whole cell extracts were prepared and one half of these extracts were used for immunoprecipitation with anti-PIAS1n (left panel). Immunoprecipitation was carried out as described in (A) and the filter was probed with anti-STAT1 and anti-STAT2. The same filter was washed and reprobed with anti-PIAS1n (lower panel). The other half of protein extracts were subjected to immunoprecipitation with anti-STAT1 (right panel). The filter was probed with a mixture of anti-STAT1 and anti-STAT2 antibodies. p-STAT1: phosphorylated STAT1.
Human Daudi B cells were untreated or treated with IFN-α for various time periods. Protein extracts were prepared and subjected to immunoprecipitation with anti-PIAS1n followed by immunoblot with both anti-STAT1 and STAT2 antibodies. While STAT1 was associated with PIAS1 in IFN-treated cells, STAT2 was absent in PIAS1 immunoprecipitates (FIG. 8B).

[4] = molecular target: STAT3 in cytokine-treated human cells (CNTF, OM or IL6) (human, UniProt P40763 2-770, limits assumed, tyrosine phosphorylated after cytokine treatment (site not given)); assay: co-immunoprecipitation with anti-PIAS1n from HepG2 cells untreated or treated with IL6 or IFN-γ, anti-STAT3 blot
Chain of STAT3 in cytokine-treated human cells (CNTF, OM or IL6) (P40763 2-770 limits assumed): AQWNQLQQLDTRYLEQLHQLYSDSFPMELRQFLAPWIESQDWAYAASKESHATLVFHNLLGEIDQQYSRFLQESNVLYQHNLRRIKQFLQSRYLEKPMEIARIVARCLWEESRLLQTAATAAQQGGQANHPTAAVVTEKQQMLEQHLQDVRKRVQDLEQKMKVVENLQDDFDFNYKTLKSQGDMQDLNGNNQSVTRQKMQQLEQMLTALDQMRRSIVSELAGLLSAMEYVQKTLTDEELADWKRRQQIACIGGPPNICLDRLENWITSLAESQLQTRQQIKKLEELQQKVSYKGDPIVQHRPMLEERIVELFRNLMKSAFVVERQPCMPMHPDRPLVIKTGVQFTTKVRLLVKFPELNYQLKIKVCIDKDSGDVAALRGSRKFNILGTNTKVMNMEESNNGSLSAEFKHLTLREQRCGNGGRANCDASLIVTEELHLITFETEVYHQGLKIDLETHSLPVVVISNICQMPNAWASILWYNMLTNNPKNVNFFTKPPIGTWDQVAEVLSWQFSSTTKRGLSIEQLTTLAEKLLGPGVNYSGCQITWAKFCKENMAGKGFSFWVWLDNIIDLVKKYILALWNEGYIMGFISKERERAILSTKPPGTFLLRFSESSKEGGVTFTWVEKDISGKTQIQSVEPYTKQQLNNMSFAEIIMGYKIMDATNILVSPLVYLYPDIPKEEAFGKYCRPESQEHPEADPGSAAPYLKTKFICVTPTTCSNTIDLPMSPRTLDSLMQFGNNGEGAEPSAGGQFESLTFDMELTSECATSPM

Chain of STAT2 in IFN-treated human Daudi B cells (P52630 whole entry): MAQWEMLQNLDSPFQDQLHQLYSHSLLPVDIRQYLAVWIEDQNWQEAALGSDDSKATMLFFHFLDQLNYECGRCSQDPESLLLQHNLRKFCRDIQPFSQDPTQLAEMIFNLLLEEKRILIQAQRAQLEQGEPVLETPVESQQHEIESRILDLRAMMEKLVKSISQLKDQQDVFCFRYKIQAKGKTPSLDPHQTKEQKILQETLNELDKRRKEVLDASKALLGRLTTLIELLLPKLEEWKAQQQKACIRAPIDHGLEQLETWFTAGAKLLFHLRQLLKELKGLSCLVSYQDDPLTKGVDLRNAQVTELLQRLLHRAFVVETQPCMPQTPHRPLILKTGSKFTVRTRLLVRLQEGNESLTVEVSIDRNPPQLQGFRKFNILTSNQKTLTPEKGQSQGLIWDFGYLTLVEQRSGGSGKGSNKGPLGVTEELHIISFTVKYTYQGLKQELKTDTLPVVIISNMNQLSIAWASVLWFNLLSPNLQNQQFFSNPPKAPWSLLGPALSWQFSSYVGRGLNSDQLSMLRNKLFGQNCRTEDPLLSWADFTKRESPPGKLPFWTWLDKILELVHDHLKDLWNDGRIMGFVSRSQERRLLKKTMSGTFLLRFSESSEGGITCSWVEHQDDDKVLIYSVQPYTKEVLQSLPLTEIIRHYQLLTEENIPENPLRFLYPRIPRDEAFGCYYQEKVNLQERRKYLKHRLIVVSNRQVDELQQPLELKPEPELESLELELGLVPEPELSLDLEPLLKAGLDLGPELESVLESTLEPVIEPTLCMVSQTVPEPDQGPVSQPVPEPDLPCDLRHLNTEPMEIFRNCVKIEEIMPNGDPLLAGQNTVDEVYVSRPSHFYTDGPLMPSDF

B1: murine PIAS3 (other)
chain: MVMSFRVSELQVLLGFAGRNKSGRKHELLAKALHLLKSSCAPSVQMKIKELYRRRFPRKTLGPSDLSLLSLPPGTSPPVHPDVTMKPLPFYEVYGELIRPTTLASTSSQRFEEAHFTFALTPQQLQQILTSREVLPGAKCDYTIQVQLRFCLCETSCPQEDYFPPNLFVKVNGKLCPLPGYLPPTKNGAEPRGPAVRSTSHPWLDSQPLSPTPSLLIGHLSLDGITPCPCLVRQLTAGTLLQKLRAKGIRNPDHSRALIKEKLTADPDSEVATTSLPGVTHVPARKMRLTVPCRALTCAHLQSFDAALYLQMNEKKPTWTCPVCDKKAPYESLIIDGLFMEILNSCSDDDEIQFMEDGSWCPMKPKKEASEVCPPPGYGLDGLQYSAVQEGIQPESKKRVEVIDLTIESSSDEEDLPPTKKHCSPTSAAIPALPGSKGALTSGHQPSSVLRSPAMGTLGSDFLSSLPVHEYPPAFPLGADIQGLDLFSFLQTESQQYGPSVIISLDEQDTLGHFFQYRGTPSHFLGPLAPTLGSCHGSSTPAPPPGRVSSIVAPGSSLREGHGGPLPSGPSLTGCRSDVISLD
notes: Endogenous protein immunoprecipitated with anti-PIAS3c from M1 cell extracts; also called mPIAS3; mouse PIAS3
B1: no binding [1].

B2: human PIAS3 (other)
chain: B1 chain with H219M, D349C, H422Q, P425V, P434L, A439V
notes: Endogenous protein immunoprecipitated with anti-PIAS3c from human HepG2 cells; also called hPIAS3
B2: no binding [2].

B3: human PIAS1 (other)
chain: ADSAELKQMVMSLRVSELQVLLGYAGRNKHGRKHELLTKALHLLKAGCSPAVQMKIKELYRRRFPQKIMTPADLSIPNVHSSPMPATLSPSTIPQLTYDGHPASSPLLPVSLLGPKHKLELPHLTSALHPVHPDIKLQKLPFYDLLDELIKPTSLASDNSQRFRETCFAFALTPQQVQQISSSMDISGTKCDFTVQVQLRFCLSETSCPQEDHFPPNLCVKVNTKPCSLPGYLPPTKNGVEPKRPSRPINITSLVRLSTTVPNTMCSWTAEIGRNYSMAVYLVKQLSSTVLLQRLRAKGIRNPDHSRALIKEKLTADPDSEIATTSLRVSLLCPLGKMRLTIPCRALTCSHLQCFDATLYIQMNEKKPTWVCPVCDKKAPYEHLIIDGLFMEILKYCTDCDEIQFKEDGTWAPMRSKKEVQEVSASYNGVDGCLSSTLEHQVASHHQSSNKNKKVEVIDLTIDSSSDEEEEEPSAKRTCPSLSPTSPLNNKGILSLPHQASPVSRTPSLPAVDTSYINTSLIQDYRHPFHMTPMPYDLQGLDFFPFLSGDNQHYNTSLLAAAAAAVSDDQDLLHSSRFFPYTSSQMFLDQLSAGGSTSLPTTNGSSSGSNSSLVSSNSLRESHSHTVTNRSSTDTASIFGIIPDIISLD
notes: also called hPIAS1
B3: no binding [3]; no binding [4].
